Measurements published in patent US20240124553A1.
Where “and” joins values, the source holds several entries; their conditions need not be identical. Equal entries are not always repeated. Where two headings read alike, the source gives them in different places.

Tests used:
[1] = target: CHIKV virus-like particles (strain 37997) (chikungunya virus)
[2] = target: CHIKV E2-6K-E1 envelope proteins (strain S27) with E2 G209A (Chikungunya virus strain S27) (UniProt Q8JUX5); assay: flow cytometry, transfected 293T cells
[3] = target: CHIKV E2-6K-E1 envelope proteins (strain S27) with E2 N187A (Chikungunya virus strain S27) (UniProt Q8JUX5); assay: flow cytometry, transfected 293T cells
[4] = target: CHIKV E2-6K-E1 envelope proteins (strain S27) with E2 C203A (Chikungunya virus strain S27) (UniProt Q8JUX5); assay: flow cytometry, transfected 293T cells
[5] = target: CHIKV E2-6K-E1 envelope proteins (strain S27) with E2 S182A (Chikungunya virus strain S27) (UniProt Q8JUX5); assay: flow cytometry, transfected 293T cells
[6] = target: CHIKV E2-6K-E1 envelope proteins (strain S27) with E2 S194A (Chikungunya virus strain S27) (UniProt Q8JUX5); assay: flow cytometry, transfected 293T cells
[7] = target: CHIKV E2-6K-E1 envelope proteins (strain S27) with E2 I211A (Chikungunya virus strain S27) (UniProt Q8JUX5); assay: flow cytometry, transfected 293T cells
[8] = target: CHIKV E2-6K-E1 envelope proteins (strain S27) with E2 T196A (Chikungunya virus strain S27) (UniProt Q8JUX5); assay: flow cytometry, transfected 293T cells
[9] = target: CHIKV E2-6K-E1 envelope proteins (strain S27) with E2 G204A (Chikungunya virus strain S27) (UniProt Q8JUX5); assay: flow cytometry, transfected 293T cells
[10] = target: CHIKV E2-6K-E1 envelope proteins (strain S27) with E2 V216A (Chikungunya virus strain S27) (UniProt Q8JUX5); assay: flow cytometry, transfected 293T cells
[11] = target: CHIKV E2-6K-E1 envelope proteins (strain S27) with E2 K189A (Chikungunya virus strain S27) (UniProt Q8JUX5); assay: flow cytometry, transfected 293T cells
[12] = target: CHIKV E2-6K-E1 envelope proteins (strain S27) with E2 N219A (Chikungunya virus strain S27) (UniProt Q8JUX5); assay: flow cytometry, transfected 293T cells
[13] = target: CHIKV E2-6K-E1 envelope proteins (strain S27) with E2 S185A (Chikungunya virus strain S27) (UniProt Q8JUX5); assay: flow cytometry, transfected 293T cells
[14] = target: CHIKV E2-6K-E1 envelope proteins (strain S27) with E2 L180A (Chikungunya virus strain S27) (UniProt Q8JUX5); assay: flow cytometry, transfected 293T cells
[15] = target: CHIKV E2-6K-E1 envelope proteins (strain S27) with E2 Y199A (Chikungunya virus strain S27) (UniProt Q8JUX5); assay: flow cytometry, transfected 293T cells
[16] = target: CHIKV E2-6K-E1 envelope proteins (strain S27) with E2 N193A (Chikungunya virus strain S27) (UniProt Q8JUX5); assay: flow cytometry, transfected 293T cells
[17] = target: CHIKV E2-6K-E1 envelope proteins (strain S27) with E2 L181A (Chikungunya virus strain S27) (UniProt Q8JUX5); assay: flow cytometry, transfected 293T cells
[18] = target: CHIKV E2-6K-E1 envelope proteins (strain S27) with E2 Q184A (Chikungunya virus strain S27) (UniProt Q8JUX5); assay: flow cytometry, transfected 293T cells
[19] = target: CHIKV E2-6K-E1 envelope proteins (strain S27) with E2 Q183A (Chikungunya virus strain S27) (UniProt Q8JUX5); assay: flow cytometry, transfected 293T cells
[20] = target: CHIKV E2-6K-E1 envelope proteins (strain S27) with E2 L210A (Chikungunya virus strain S27) (UniProt Q8JUX5); assay: flow cytometry, transfected 293T cells
[21] = target: CHIKV E2-6K-E1 envelope proteins (strain S27) with E2 C201A (Chikungunya virus strain S27) (UniProt Q8JUX5); assay: flow cytometry, transfected 293T cells
[22] = target: CHIKV E2-6K-E1 envelope proteins (strain S27) with E2 I217A (Chikungunya virus strain S27) (UniProt Q8JUX5); assay: flow cytometry, transfected 293T cells
[23] = target: CHIKV E2-6K-E1 envelope proteins (strain S27) with E2 V192A (Chikungunya virus strain S27) (UniProt Q8JUX5); assay: flow cytometry, transfected 293T cells
[24] = target: CHIKV E2-6K-E1 envelope proteins (strain S27) with E2 R198A (Chikungunya virus strain S27) (UniProt Q8JUX5); assay: flow cytometry, transfected 293T cells
[25] = target: CHIKV E2-6K-E1 envelope proteins (strain S27) with E2 G186A (Chikungunya virus strain S27) (UniProt Q8JUX5); assay: flow cytometry, transfected 293T cells
[26] = target: CHIKV E2-6K-E1 envelope proteins (strain S27) with E2 S206A (Chikungunya virus strain S27) (UniProt Q8JUX5); assay: flow cytometry, transfected 293T cells
[27] = target: CHIKV E2-6K-E1 envelope proteins (strain S27) with E2 V188A (Chikungunya virus strain S27) (UniProt Q8JUX5); assay: flow cytometry, transfected 293T cells
[28] = target: CHIKV E2-6K-E1 envelope proteins (strain S27) with E2 Q195A (Chikungunya virus strain S27) (UniProt Q8JUX5); assay: flow cytometry, transfected 293T cells
[29] = target: CHIKV E2-6K-E1 envelope proteins (strain S27) with E2 V197A (Chikungunya virus strain S27) (UniProt Q8JUX5); assay: flow cytometry, transfected 293T cells
[30] = target: CHIKV E2-6K-E1 envelope proteins (strain S27) with E2 N218A (Chikungunya virus strain S27) (UniProt Q8JUX5); assay: flow cytometry, transfected 293T cells
[31] = target: CHIKV E2-6K-E1 envelope proteins (strain S27) with E2 N202A (Chikungunya virus strain S27) (UniProt Q8JUX5); assay: flow cytometry, transfected 293T cells
[32] = target: CHIKV E2-6K-E1 envelope proteins (strain S27) with E2 C220A (Chikungunya virus strain S27) (UniProt Q8JUX5); assay: flow cytometry, transfected 293T cells
[33] = target: CHIKV E2-6K-E1 envelope proteins (strain S27) with E2 G205A (Chikungunya virus strain S27) (UniProt Q8JUX5); assay: flow cytometry, transfected 293T cells
[34] = target: CHIKV E2-6K-E1 envelope proteins (strain S27) with E2 T191A (Chikungunya virus strain S27) (UniProt Q8JUX5); assay: flow cytometry, transfected 293T cells
[35] = target: CHIKV E2-6K-E1 envelope proteins (strain S27) with E2 K215A (Chikungunya virus strain S27) (UniProt Q8JUX5); assay: flow cytometry, transfected 293T cells
[36] = target: CHIKV E2-6K-E1 envelope proteins (strain S27) with E2 T212A (Chikungunya virus strain S27) (UniProt Q8JUX5); assay: flow cytometry, transfected 293T cells
[37] = target: CHIKV E2-6K-E1 envelope proteins (strain S27) with E2 I190A (Chikungunya virus strain S27) (UniProt Q8JUX5); assay: flow cytometry, transfected 293T cells
[38] = target: CHIKV E2-6K-E1 envelope proteins (strain S27) with E2 K200A (Chikungunya virus strain S27) (UniProt Q8JUX5); assay: flow cytometry, transfected 293T cells
[39] = target: CHIKV virus-like particles (strain 37997) (chikungunya virus); remark: listed apart in the source
[40] = target: CHIKV virus-like particles (strain 37997) (chikungunya virus); remark: listed apart in the source
[41] = target: CHIKV virus-like particles (strain 37997) (chikungunya virus); remark: listed apart in the source
[42] = target: CHIKV strain 181/25 (virions; also E2-E1 shown on infected cells) (chikungunya virus); assay: cryo-EM of infectious CHIKV with Mxra8
[43] = target: CHIKV virus-like particles (strain 37997) (chikungunya virus); remark: listed apart in the source
[44] = target: CHIKV virus-like particles (strain 37997) (chikungunya virus); assay: SPR, […], kinetic fit ([…]
[45] = target: CHIKV virus-like particles (strain 37997) (chikungunya virus); remark: listed apart in the source
[46] = target: Sindbis virus strain TR339 (virions; also structural proteins on infected Vero cells) (Sindbis virus)
[47] = target: CHIKV virus-like particles (strain 37997) (chikungunya virus); remark: listed apart in the source
[48] = target: CHIKV virus-like particles (strain 37997) (chikungunya virus); remark: listed apart in the source
[49] = target: CHIKV virus-like particles (strain 37997) (chikungunya virus); remark: listed apart in the source

CHK-265 (murine anti-CHIKV mAb) (antibody)
EC50 (read off the curve) [1]: 0.003 µg/mL

IM-CKV063 (antibody)
Binding Reactivity (% WT) [2]: 99.8 % WT
Binding Reactivity (% WT) [3]: 114 % WT
Binding Reactivity (% WT) [4]: 45.1 % WT
Binding Reactivity (% WT) [5]: 121 % WT
Binding Reactivity (% WT) [6]: 94 % WT
Binding Reactivity (% WT) [7]: 77.2 % WT
Binding Reactivity (% WT) [8]: 83 % WT
Binding Reactivity (% WT) [9]: 91.5 % WT
Binding Reactivity (% WT) [10]: 97.7 % WT
Binding Reactivity (% WT) [11]: 109 % WT
Binding Reactivity (% WT) [12]: 98 % WT
Binding Reactivity (% WT) [13]: 108 % WT
Binding Reactivity (% WT) [14]: 114 % WT
Binding Reactivity (% WT) [15]: 79.8 % WT
Binding Reactivity (% WT) [16]: 85.7 % WT
Binding Reactivity (% WT) [17]: 87.9 % WT
Binding Reactivity (% WT) [18]: 121 % WT
Binding Reactivity (% WT) [19]: 101 % WT
Binding Reactivity (% WT) [20]: 86.3 % WT
Binding Reactivity (% WT) [21]: 47.7 % WT
Binding Reactivity (% WT) [22]: 69.7 % WT
Binding Reactivity (% WT) [23]: 98.3 % WT
Binding Reactivity (% WT) [24]: 98.2 % WT
Binding Reactivity (% WT) [25]: 95.4 % WT
Binding Reactivity (% WT) [26]: 119 % WT
Binding Reactivity (% WT) [27]: 114 % WT
Binding Reactivity (% WT) [28]: 78.6 % WT
Binding Reactivity (% WT) [29]: 67.4 % WT
Binding Reactivity (% WT) [30]: 97.6 % WT
Binding Reactivity (% WT) [31]: 92.8 % WT
Binding Reactivity (% WT) [32]: 95.2 % WT
Binding Reactivity (% WT) [33]: 62 % WT
Binding Reactivity (% WT) [34]: 94.8 % WT
Binding Reactivity (% WT) [35]: 102 % WT
Binding Reactivity (% WT) [36]: 108 % WT
Binding Reactivity (% WT) [37]: 56.1 % WT
Binding Reactivity (% WT) [38]: 119 % WT

MAb C9 (antibody)
Binding Reactivity (% WT) [2]: 108 % WT
Binding Reactivity (% WT) [3]: 123 % WT
Binding Reactivity (% WT) [4]: 58.3 % WT
Binding Reactivity (% WT) [5]: 132 % WT
Binding Reactivity (% WT) [6]: 119 % WT
Binding Reactivity (% WT) [7]: 126 % WT
Binding Reactivity (% WT) [8]: 99.8 % WT
Binding Reactivity (% WT) [9]: 106 % WT
Binding Reactivity (% WT) [10]: 112 % WT
Binding Reactivity (% WT) [11]: 129 % WT
Binding Reactivity (% WT) [12]: 117 % WT
Binding Reactivity (% WT) [13]: 105 % WT
Binding Reactivity (% WT) [14]: 126 % WT
Binding Reactivity (% WT) [15]: 122 % WT
Binding Reactivity (% WT) [16]: 113 % WT
Binding Reactivity (% WT) [17]: 110 % WT
Binding Reactivity (% WT) [18]: 135 % WT
Binding Reactivity (% WT) [19]: 176 % WT
Binding Reactivity (% WT) [20]: 105 % WT
Binding Reactivity (% WT) [21]: 65 % WT
Binding Reactivity (% WT) [22]: 110 % WT
Binding Reactivity (% WT) [23]: 114 % WT
Binding Reactivity (% WT) [24]: 122 % WT
Binding Reactivity (% WT) [25]: 101 % WT
Binding Reactivity (% WT) [26]: 96 % WT
Binding Reactivity (% WT) [27]: 141 % WT
Binding Reactivity (% WT) [28]: 129 % WT
Binding Reactivity (% WT) [29]: 83.8 % WT
Binding Reactivity (% WT) [30]: 72 % WT
Binding Reactivity (% WT) [31]: 96.2 % WT
Binding Reactivity (% WT) [32]: 104 % WT
Binding Reactivity (% WT) [33]: 111 % WT
Binding Reactivity (% WT) [34]: 118 % WT
Binding Reactivity (% WT) [35]: 143 % WT
Binding Reactivity (% WT) [36]: 125 % WT
Binding Reactivity (% WT) [37]: 81.8 % WT
Binding Reactivity (% WT) [38]: 144 % WT

Mxra8 cleaved from Mxra8-HRV-Fc (soluble monomeric mouse Mxra8) (from UniProt Q9DBV4 23-336) (receptor)
Kd [39]: 84 nM and 270 nM
Kd [40]: 183 nM and 224 nM
kon [40]: 37000 M⁻¹ s⁻¹
t1/2 [40]: 1.8 min
Mxra8 molecules per virion (molecules per virion) [41]: 240
Mxra8 proteins bound per particle (proteins per particle) [42]: 60
Kd [43]: 200 nM
Kd [44]: 83.9 nM and 270 nM
Kd [45]: 60 nM and 300 nM

cleaved human Mxra8 (human monomeric MXRA8) (from UniProt Q9BRK3 20-341) (receptor)
Kd [44]: 98.3 nM and 210 nM
Kd [45]: 60 nM and 300 nM

duck MXRA8-Fc (Fc fusion)
neutralisation of SINV-GFP infection; IC50 (read off the curve) [46]: 1 µg/mL

monovalent Du-D1-Mo-D2 MXRA8 (cleaved from the Fc fusion with GlySERIAS) (from UniProt Q9DBV4 23-65; Q9DBV4 195-293) (receptor)
Kd [47]: 545 nM
Kd [48]: 665 nM

monovalent mouse MXRA8 (cleaved from mouse MXRA8-Fc with GlySERIAS) (from UniProt Q9DBV4 20-340) (receptor)
Kd [49]: 76 nM
Kd [47]: 68 nM
